Tests used:
Experiment in all cases: cell_activity
[1] = tested on: ZF6xHunt-Kox-1 (artificial (human Zif268 scaffold)); conditions: mRNA repression up to 2.5-fold (60%); protein 2-fold; STHdh cells 20 days
[2] = tested on: ZF11xHunt-Kox-1 (ZF-Kox-1) (artificial (human Zif268 scaffold))
[3] = tested on: mZF11-ZF87 (mZF-ZF87, mZF-KRAB) (artificial (mouse Zif268 scaffold)); conditions: R6/1 mice, 2 weeks after AAV injection; mZF-ZF87 design given as SEQ 50 (p342), legend of FIG. 13 cites SEQ 49
Chain of mZF11-ZF87 (mZF-ZF87, mZF-KRAB) (artificial (mouse Zif268 scaffold)) (chain, as listed by the source): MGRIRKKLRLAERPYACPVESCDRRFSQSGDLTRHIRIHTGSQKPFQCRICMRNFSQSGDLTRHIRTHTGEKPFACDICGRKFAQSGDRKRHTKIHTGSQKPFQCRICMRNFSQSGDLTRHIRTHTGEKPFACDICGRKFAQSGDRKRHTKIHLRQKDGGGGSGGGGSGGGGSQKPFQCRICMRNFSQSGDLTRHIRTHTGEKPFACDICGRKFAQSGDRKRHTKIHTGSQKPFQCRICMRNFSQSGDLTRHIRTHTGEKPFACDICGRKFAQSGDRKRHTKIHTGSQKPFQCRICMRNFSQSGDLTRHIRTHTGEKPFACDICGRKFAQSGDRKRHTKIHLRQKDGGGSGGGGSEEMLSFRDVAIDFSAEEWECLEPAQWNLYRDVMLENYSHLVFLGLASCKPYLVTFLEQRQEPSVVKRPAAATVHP

Chain of ZF11xHunt-Kox-1 (ZF-Kox-1) (artificial (human Zif268 scaffold)) (chain, as listed by the source): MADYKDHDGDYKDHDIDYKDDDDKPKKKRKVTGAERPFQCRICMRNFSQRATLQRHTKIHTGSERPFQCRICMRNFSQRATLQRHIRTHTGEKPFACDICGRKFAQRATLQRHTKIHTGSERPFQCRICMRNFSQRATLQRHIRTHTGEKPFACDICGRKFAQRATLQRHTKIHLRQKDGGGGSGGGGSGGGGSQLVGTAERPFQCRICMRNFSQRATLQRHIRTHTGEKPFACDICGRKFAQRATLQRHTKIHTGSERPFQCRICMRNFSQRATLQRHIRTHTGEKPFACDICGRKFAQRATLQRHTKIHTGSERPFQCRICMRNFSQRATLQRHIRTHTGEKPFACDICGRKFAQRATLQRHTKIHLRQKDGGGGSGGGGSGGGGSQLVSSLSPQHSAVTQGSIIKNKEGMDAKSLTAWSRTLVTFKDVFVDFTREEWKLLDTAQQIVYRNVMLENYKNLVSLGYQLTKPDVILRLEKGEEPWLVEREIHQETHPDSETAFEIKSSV
Chain of ZF6xHunt-Kox-1 (artificial (human Zif268 scaffold)) (chain, as listed by the source): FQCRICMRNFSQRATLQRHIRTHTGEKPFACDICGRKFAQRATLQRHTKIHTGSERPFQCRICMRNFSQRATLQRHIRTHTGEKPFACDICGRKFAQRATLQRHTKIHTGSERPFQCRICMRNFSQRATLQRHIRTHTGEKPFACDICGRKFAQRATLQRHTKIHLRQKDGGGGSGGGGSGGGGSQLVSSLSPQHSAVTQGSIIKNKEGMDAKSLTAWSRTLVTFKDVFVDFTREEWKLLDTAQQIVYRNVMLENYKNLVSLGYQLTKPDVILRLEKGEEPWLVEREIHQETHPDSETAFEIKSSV

Substance: chromosomal mutant Htt Q111 (STHdhQ111)
- activity [1]: 2.5 fold
- activity ([2]; almost 80% mRNA reduction, 95% protein reduction, STHdh cells 20 days): 80 % reduction

Substance: mutant HTT transgene in R6/2 or R6/1 mice
- activity [3]: 30 % reduction
- activity ([2]; R6/2 mice, 2 weeks after AAV injection, mRNA): 35 % reduction

Reference: patent publication US20190247519
